In patent US20100015654A1 (INSTITUT DE RECHERCHES CLINIQUES DE MONTREAL I R C M, published 2010):

Legend:
[1] = target: T1, mouse CD16 (mouse, UniProt P08508 31-261); assay: co-immunoprecipitation from IL-2-activated mouse NK cells (data not shown)
T1 construct: whole, on cells; Endogenous protein in NK cell lysates
T1 sequence (looked up): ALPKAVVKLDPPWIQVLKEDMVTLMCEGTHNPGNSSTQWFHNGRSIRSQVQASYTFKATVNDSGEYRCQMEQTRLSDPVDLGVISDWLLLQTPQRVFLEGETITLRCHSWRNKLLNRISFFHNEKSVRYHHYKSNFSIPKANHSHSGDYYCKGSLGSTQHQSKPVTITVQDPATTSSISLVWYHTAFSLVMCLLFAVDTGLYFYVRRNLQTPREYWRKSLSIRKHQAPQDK

[2] = target: T2, mouse CRACC (mouse, UniProt Q8BHK6 23-333); assay: co-immunoprecipitation from IL-2-activated mouse NK cells, anti-CRACC immunoblot
T2 construct: whole, on cells; Endogenous protein in NK cell lysates
T2 sequence (looked up): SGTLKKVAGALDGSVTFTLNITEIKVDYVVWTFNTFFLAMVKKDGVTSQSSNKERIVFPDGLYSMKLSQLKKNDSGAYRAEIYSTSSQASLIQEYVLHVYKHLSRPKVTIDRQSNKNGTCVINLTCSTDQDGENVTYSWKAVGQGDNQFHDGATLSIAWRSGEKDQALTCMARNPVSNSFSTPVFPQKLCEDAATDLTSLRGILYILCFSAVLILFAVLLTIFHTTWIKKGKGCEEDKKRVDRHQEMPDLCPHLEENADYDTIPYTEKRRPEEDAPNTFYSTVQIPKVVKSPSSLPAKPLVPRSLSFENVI
From the text: (§1) Association of phosphotyrosine-containing proteins with SAP-related adaptors in mouse NK cells. The indicated SAP-related adaptors were immunoprecipitated from IL-2-activated mouse NK cells, resolved in 8% gels and probed by immunoblotting with anti-phosphotyrosine (P.tyr). The anti-EAT-2 MAbs used for immunoprecipitation react with both EAT-2 and ERT. Anti-CD4 MAb GK1.5 was used as control antibody. IgH: heavy chain of IgG. Efficient immunoprecipitation of the SAP-related adaptors was verified by probing parallel immunoprecipitates with anti-EAT-2/ERT and anti-SAP (data not shown). b. Association of 2B4 with SAP-related adaptors in NK cells. Immunoprecipitates of SAP family adaptors were reprobed by immunoblotting with anti-2B4 (top panels), anti-CRACC (middle panels) and anti-CD84 (bottom panels). The migration of the various SLAM-related receptors was verified by immunoblotting of total cell lysates with the specified antibodies (lane 5).
(§2) Mouse NK cells express three SLAM-related receptors, 2B4, CRACC and CD84, that have apparent molecular masses between 60 and 70 kDa (our unpublished results). To determine if the 70 kDa-tyrosine phosphorylated protein associated with SAP family adaptors was any of these SLAM-related receptors, immunoprecipitates of SAP-related adaptors were probed by immunoblotting with antibodies against each of these SLAM family members (FIG. 5b). […]

[3] = target: T3, mouse CD84 (mouse, UniProt Q18PI6 22-329); assay: co-immunoprecipitation from IL-2-activated mouse NK cells, anti-CD84 immunoblot
T3 construct: whole, on cells; Endogenous protein in NK cell lysates
T3 sequence (looked up): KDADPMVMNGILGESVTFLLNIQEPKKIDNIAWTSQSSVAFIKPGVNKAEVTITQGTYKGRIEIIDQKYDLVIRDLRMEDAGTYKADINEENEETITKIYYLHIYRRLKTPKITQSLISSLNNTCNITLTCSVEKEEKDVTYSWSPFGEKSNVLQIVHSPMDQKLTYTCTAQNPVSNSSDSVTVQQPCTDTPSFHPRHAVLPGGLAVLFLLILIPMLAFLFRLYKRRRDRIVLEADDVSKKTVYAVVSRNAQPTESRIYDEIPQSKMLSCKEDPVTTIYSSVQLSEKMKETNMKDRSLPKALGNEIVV
From the text: as §1, §2

binding result [1]: no binding | binding result [2]: no binding | binding result [3]: no binding
B1: mouse SAP (other, UniProt O88890 1-126, looked up)
chain: MDAVTVYHGKISRETGEKLLLATGLDGSYLLRDSESVPGVYCLCVLYQGYIYTYRVSQTETGSWSAETAPGVHKRFFRKVKNLISAFQKPDQGIVTPLQYPVEKSSGRGPQAPTGRRDSDICLNAP
notes: Intracellular adaptor made of an SH2 domain and a short tail
